Results as given in IntAct's records for PubMed 26258632.

B1: Mitotic spindle assembly checkpoint protein MAD1 (Homo sapiens), Q9Y6D9 (parent)
chain: MEDLGENTMVLSTLRSLNNFISQRVEGGSGLDISTSAPGSLQMQYQQSMQLEERAEQIRSKSHLIQVEREKMQMELSHKRARVELERAASTSARNYEREVDRNQELLTRIRQLQEREAGAEEKMQEQLERNRQCQQNLDAASKRLREKEDSLAQAGETINALKGRISELQWSVMDQEMRVKRLESEKQELQEQLDLQHKKCQEANQKIQELQASQEARADHEQQIKDLEQKLSLQEQDAAIVKNMKSELVRLPRLERELKQLREESAHLREMRETNGLLQEELEGLQRKLGRQEKMQETLVGLELENERLLAKLQSWERLDQTMGLSIRTPEDLSRFVVELQQRELALKDKNSAVTSSARGLEKARQQLQEELRQVSGQLLEERKKRETHEALARRLQKRVLLLTKERDGMRAILGSYDSELTPAEYSPQLTRRMREAEDMVQKVHSHSAEMEAQLSQALEELGGQKQRADMLEMELKMLKSQSSSAEQSFLFSREEADTLRLKVEELEGERSRLEEEKRMLEAQLERRALQGDYDQSRTKVLHMSLNPTSVARQRLREDHSQLQAECERLRGLLRAMERGGTVPADLEAAAASLPSSKEVAELKKQVESAELKNQRLKEVFQTKIQEFRKACYTLTGYQIDITTENQYRLTSLYAEHPGDCLIFKATSPSGSKMQLLETEFSHTVGELIEVHLRRQDSIPAFLSSLTLELFSRQTVA

Variants of: B1
Details: with cenpe_human CENPE

Row | Variant | effect of a mutation on the interaction
1 | L17A;N18A;N19A;F20A;I21A | disrupting interaction strength

Variants of: B1
Details: with cenpe_human CENPE
Remark: another data set of the same source

Row | Variant | effect of a mutation on the interaction
2 | L17A;N18A;N19A;F20A;I21A | decreasing interaction strength
